Test results as given in paper PMC7367391, “EtMIC3 and its receptors BAG1 and ENDOUL are essential for site-specific invasion of Eimeria tenella in chickens” (Veterinary Research, 2020).

B1: recombinant BAG1 expressed from pET-32a-BAG1 (natural protein, chicken, UniProt F1NPL0 1-209, looked up)
chain: MAVPGAPVSVTVTYSNEKHNIQVASQQEDGEPTLQDMAVLIEQVTGVPVSFQKLIYKGKSLKELEQPLSALGVKNGCKVMLIGKRNSPEEEAELKKLKDLEKSVEQIANKLEEVNKEFTSIQKGFLAKDLQAEALKQLDKRIKGTAEQFMKILEQVDAINLPENFNDCRLKKKGLVKRVQAFLAQCDTVEGNIGQEMDKLQSKNLALAE
B2: recombinant ENDOUL expressed from pET-32a-ENDOUL (natural protein, chicken, UniProt A0A8V0YKR0 1-289, looked up)
chain: MADRKALNHELSKLFNEMWDMDVNRFTPGKDYAIELQGKADAVLQGDSVVQDSAARHLFHYVNEERLKNIKTFATFISLLDNYETSTGVEEIVTPEEIAENNCFLDAILMTGVMKLAHEYLLKKKLAKPNLADFKYQLYDIWFQLYPRKEGDRPDSCGFEHVFVGETRRGKQILGLHNWVQFYLQEKHKQIDYKGYIARKNKTRPDRDDQVLSIQFSWKGSVKPIGSTFIGVSPEFEFALYTVIFLLSEERVTRKTVKIEEYELQIVVCRHGRHIGTAYPVLLNTSNED

Target: T1, pGEX-6P-1-EtMIC3 recombinant protein (E. tenella, UniProt B6VCV4 1-988)
T1 sequence (looked up): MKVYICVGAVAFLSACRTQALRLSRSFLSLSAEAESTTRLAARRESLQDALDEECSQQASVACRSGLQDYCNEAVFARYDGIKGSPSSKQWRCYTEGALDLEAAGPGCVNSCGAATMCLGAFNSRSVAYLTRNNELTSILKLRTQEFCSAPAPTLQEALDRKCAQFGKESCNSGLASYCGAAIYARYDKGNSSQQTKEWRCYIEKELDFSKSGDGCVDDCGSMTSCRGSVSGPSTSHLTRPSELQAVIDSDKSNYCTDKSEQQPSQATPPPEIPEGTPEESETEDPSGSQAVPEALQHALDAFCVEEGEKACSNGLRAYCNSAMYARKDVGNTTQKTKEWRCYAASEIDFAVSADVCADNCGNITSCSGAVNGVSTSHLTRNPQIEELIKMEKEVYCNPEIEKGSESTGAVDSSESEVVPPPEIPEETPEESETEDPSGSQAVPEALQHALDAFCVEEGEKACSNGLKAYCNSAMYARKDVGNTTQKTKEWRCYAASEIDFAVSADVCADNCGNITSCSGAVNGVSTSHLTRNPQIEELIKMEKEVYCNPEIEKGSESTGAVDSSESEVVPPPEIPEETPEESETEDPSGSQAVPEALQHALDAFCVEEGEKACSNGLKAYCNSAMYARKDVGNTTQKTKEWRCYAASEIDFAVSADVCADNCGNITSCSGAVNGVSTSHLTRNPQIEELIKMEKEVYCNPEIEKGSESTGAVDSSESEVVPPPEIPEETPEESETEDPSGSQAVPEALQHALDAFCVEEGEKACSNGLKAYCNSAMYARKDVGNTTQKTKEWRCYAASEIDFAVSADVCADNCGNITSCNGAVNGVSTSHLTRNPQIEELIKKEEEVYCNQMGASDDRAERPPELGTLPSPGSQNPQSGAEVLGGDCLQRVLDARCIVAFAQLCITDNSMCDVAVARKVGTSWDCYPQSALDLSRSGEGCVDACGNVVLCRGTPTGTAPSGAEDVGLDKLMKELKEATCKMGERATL
Experiment: cell-based or functional assay

| Binder | oocyst decrease ratio (%) in chickens challenged with 5 × 10^4 E. tenella sporulated oocysts and injected intravenously with anti-BAG1 serum every day for 7 days [%] | oocyst decrease ratio (%) in chickens challenged with 5 × 10^4 E. tenella sporulated oocysts and injected intravenously with anti-ENDOUL serum every day for 7 days [%] |
| --- | --- | --- |
| B1 | 3.63 |  |
| B2 |  | 5.07 |
